Source: patent US7022488

Tests used:
[1] = molecular target: Gi proteins; assay: cell-based or functional assay
[2] = molecular target: Gs; assay: cell-based or functional assay

**Q.** For “β-adrenergic receptor (β2AR) (from UniProt P07550 1-413)”, which increase of the isoproterenol cAMP response after pertussis toxin treatment [1] is on record?
**A.** > 17 fold

**Q.** How did the increase in cAMP levels after pertussis toxin treatment [2] turn out when “human umami taste receptor hT1R1/hT1R3 (from UniProt Q7RTX1 21-841; Q7RTX0 21-852)” was run?
**A.** 25%
